Measured values published in article PMC11626796.

Key:
[1] = target: Native versican isolated from bovine liver (bovine) (UniProt P81282); experiment: ELISA; solid-phase binding assay: proteoglycan or versican domain coated on a 96-well plate (0.25 ug/ml; 0.05-1 ug/ml in Fig. 2A) at 4 C overnight, blocked with 3% BSA in TTBS or casein; rat tail type I collagen 0.1-5 ug/ml in 1% BSA/PBS overnight at RT; detected with biotin-conjugated anti-collagen I antibody, streptavidin-HRP and TMB; Kd from Scatchard plot
Sequence of Native versican isolated from bovine liver (bovine) (P81282 21-3381): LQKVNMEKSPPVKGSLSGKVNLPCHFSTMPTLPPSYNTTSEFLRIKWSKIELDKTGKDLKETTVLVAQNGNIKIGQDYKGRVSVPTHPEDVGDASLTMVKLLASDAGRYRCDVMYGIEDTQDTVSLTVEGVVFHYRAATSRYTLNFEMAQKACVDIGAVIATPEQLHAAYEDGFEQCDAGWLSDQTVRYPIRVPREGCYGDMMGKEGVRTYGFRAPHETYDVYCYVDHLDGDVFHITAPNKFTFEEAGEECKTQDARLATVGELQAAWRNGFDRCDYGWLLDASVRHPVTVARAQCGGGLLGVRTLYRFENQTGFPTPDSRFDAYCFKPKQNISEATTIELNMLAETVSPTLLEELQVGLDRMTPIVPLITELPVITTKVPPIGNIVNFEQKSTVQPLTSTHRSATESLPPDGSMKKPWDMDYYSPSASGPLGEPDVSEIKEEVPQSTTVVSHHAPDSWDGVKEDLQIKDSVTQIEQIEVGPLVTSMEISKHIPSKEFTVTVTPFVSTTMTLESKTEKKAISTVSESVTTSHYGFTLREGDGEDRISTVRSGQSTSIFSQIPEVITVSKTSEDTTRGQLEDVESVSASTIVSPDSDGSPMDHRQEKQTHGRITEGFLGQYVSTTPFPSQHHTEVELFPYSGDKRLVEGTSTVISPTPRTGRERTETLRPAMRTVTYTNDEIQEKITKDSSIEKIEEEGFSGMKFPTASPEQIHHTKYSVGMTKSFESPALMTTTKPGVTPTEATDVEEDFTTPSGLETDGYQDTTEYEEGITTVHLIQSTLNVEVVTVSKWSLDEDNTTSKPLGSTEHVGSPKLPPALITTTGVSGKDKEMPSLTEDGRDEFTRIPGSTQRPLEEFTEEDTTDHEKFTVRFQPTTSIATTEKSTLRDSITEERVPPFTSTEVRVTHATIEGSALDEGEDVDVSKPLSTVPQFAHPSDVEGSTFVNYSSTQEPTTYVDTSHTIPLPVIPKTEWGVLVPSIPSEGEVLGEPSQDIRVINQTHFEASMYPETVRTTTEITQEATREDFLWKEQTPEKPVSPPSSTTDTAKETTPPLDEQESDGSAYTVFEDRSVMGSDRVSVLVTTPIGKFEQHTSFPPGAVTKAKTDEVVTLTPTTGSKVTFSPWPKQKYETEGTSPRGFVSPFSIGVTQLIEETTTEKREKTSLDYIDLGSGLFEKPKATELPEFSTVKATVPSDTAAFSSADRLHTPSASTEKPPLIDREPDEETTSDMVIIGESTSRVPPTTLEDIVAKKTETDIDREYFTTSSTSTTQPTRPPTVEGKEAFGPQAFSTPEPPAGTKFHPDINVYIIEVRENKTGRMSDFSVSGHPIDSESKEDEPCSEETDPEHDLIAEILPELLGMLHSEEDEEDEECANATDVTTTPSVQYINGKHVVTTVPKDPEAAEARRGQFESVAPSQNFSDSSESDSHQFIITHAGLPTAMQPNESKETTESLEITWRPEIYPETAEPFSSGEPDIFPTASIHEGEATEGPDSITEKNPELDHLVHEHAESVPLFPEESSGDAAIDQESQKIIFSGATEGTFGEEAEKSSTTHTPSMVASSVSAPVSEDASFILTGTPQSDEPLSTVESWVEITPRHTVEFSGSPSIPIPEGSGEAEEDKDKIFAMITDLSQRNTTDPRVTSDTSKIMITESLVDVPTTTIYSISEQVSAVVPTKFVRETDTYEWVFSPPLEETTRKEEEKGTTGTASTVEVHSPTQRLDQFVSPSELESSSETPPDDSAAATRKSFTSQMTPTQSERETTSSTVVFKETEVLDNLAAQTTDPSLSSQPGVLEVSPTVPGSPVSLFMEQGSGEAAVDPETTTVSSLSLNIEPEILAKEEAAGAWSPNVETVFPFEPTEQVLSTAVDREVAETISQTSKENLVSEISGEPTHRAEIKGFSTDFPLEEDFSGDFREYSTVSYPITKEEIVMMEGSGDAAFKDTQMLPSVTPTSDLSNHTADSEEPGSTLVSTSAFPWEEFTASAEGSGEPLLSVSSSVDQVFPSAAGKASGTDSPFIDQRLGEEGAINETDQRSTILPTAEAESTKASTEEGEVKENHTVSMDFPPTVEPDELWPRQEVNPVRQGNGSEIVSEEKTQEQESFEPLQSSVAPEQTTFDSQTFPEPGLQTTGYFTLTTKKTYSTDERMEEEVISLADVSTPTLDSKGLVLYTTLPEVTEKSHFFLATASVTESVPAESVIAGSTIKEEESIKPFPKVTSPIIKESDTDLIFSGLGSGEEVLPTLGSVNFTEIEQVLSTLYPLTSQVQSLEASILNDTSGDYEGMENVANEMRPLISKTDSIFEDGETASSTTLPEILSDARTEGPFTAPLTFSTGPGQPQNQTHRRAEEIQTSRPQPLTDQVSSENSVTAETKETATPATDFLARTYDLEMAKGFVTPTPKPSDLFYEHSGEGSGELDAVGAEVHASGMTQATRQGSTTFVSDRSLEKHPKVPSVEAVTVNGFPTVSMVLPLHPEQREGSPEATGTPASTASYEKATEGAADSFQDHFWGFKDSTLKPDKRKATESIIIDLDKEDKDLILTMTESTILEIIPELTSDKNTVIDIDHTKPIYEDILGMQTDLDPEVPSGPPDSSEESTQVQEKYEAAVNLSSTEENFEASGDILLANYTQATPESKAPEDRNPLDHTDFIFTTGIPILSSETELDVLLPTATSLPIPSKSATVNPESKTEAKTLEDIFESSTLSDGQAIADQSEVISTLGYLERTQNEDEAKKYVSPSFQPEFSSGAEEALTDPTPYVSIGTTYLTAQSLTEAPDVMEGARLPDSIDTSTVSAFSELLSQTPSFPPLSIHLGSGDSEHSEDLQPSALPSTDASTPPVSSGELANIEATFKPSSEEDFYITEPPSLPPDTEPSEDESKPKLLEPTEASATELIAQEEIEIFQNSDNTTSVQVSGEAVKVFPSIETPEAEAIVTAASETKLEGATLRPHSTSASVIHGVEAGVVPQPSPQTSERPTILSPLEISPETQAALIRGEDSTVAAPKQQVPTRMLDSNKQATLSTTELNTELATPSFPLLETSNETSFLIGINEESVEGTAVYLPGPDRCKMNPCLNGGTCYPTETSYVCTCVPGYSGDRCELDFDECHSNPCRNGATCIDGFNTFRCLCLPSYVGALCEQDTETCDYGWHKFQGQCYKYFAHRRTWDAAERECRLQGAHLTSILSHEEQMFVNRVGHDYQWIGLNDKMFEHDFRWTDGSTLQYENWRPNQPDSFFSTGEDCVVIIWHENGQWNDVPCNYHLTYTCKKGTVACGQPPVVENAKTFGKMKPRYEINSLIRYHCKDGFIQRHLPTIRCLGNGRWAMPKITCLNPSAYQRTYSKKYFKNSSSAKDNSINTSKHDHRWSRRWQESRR

[2] = target: Versican treated with chondroitinase ABC (core protein) (bovine) (UniProt P81282); experiment: as above
Sequence of Versican treated with chondroitinase ABC (core protein) (bovine) (P81282 21-3381): as above

Rat tail type I telo-collagen, P02454 152-1207; P02466 86-1125 (complex; chondroitin sulfate GAG side chains)
Kd [1]: 1.3 nM

Rat tail type I telo-collagen, P02454 152-1207; P02466 86-1125 (complex; GAG side chains removed with chondroitinase ABC)
Kd [2]: 2.2 nM
